{"source": "patent US20030091565A1", "about": "(Human Genome Sciences, published 2003)", "binders": {"B1": {"name": "DX876 (peptide)", "peptide": "Ac-WYDPLTKLWLGGK(fitc)", "notes": "10-mer core (positions 3-12 of the 14-mer) with GGK linker"}}, "key": {"[1]": {"biological_target": "T1, B lymphocyte stimulator protein (BLyS), recombinant (human, UniProt Q9Y275 134-285, limits assumed, biotinylated in the phage screening and phage ELISA; unlabeled in fluorescence anisotropy)", "T1 construct": "also called biotinylated BLyS; b-BLyS", "T1 sequence (Q9Y275 134-285 limits assumed)": "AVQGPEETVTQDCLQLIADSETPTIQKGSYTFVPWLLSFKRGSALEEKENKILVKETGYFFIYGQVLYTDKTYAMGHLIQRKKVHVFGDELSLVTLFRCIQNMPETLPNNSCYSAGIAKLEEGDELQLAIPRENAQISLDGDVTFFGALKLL", "experiment": "fluorescence anisotropy", "description": "Dissociation constants between the synthetic peptides and BLyS (free in solution) were measured by fluorescence anisotropy (FA). In these experiments, the concentration of the fluorescein-labeled peptide is held constant and the BLyS protein concentration was varied. The observed change in anisotropy is fit to the following equation via nonlinear regression to obtain the apparent KD.\nBinding reactions containing 50 nM fluorescein-labeled peptide and a varied concentration of BLyS in a volume between 10 and 20 μL per well were performed in 384 well microplates. Reactions were assayed using a Tecan Polarion fluorescence polarization plate reader. Cross-competition studies between peptides were performed using 50 nM fluorescein-labeled peptide and 1-2 μM BLyS in the presence and absence of 100 μM unlabeled peptide. […] Other buffers in which dissociation constants of BLyS Binding polypeptides were detremined include: [pH 6.0, 0.01% Tween], [pH 6.0, 0.1% gelatin], [pH5.0, 0.01% Tween], [pH9.0, 0.1% Tween], [pH6.0, 15% ethylene glycol, 0.01 % Tween], ], [pH5.0, 15% ethylene glycol, 0.01 % Tween], and [pH9.0, 15% ethylene glycol, 0.01 % Tween]."}, "[2]": {"biological_target": "T1, B lymphocyte stimulator protein (BLyS), …", "experiment": "not stated there (fluorescence anisotropy elsewhere)"}, "[3]": {"biological_target": "T1, B lymphocyte stimulator protein (BLyS), …", "experiment": "not stated there"}}, "note": "No end group written: not given here."}
{"binder": "B1", "values": [{"measurement": "Kd", "setting": "[1]", "value": 171, "unit": "nM"}]}
{"binder": "Ac-WTDSLTGLWFPDGGPGPEGGGK", "note": "[DX221]", "values": [{"measurement": "Kd", "setting": "[2]", "value": 3000, "unit": "nM"}]}
{"binder": "VPFCDLLTKHCFEA (on M13 phage; also called TN8-01-B07)", "note": "[453-01-B07]", "values": [{"measurement": "Kd", "setting": "[3]", "value": 700, "unit": "nM"}]}
